Laboratory results from patent publication US20250262210A1 (TRUSTEES OF COLUMBIA UNIVERSITY IN THE CITY OF NEW YORK, published 2025).

Key:
[1] = target: T1, SREBF2 (human, UniProt Q12772 1-1141, limits assumed); test: IP/MS, LZTR1 R810W-FLAG, U87
T1 sequence (looked up): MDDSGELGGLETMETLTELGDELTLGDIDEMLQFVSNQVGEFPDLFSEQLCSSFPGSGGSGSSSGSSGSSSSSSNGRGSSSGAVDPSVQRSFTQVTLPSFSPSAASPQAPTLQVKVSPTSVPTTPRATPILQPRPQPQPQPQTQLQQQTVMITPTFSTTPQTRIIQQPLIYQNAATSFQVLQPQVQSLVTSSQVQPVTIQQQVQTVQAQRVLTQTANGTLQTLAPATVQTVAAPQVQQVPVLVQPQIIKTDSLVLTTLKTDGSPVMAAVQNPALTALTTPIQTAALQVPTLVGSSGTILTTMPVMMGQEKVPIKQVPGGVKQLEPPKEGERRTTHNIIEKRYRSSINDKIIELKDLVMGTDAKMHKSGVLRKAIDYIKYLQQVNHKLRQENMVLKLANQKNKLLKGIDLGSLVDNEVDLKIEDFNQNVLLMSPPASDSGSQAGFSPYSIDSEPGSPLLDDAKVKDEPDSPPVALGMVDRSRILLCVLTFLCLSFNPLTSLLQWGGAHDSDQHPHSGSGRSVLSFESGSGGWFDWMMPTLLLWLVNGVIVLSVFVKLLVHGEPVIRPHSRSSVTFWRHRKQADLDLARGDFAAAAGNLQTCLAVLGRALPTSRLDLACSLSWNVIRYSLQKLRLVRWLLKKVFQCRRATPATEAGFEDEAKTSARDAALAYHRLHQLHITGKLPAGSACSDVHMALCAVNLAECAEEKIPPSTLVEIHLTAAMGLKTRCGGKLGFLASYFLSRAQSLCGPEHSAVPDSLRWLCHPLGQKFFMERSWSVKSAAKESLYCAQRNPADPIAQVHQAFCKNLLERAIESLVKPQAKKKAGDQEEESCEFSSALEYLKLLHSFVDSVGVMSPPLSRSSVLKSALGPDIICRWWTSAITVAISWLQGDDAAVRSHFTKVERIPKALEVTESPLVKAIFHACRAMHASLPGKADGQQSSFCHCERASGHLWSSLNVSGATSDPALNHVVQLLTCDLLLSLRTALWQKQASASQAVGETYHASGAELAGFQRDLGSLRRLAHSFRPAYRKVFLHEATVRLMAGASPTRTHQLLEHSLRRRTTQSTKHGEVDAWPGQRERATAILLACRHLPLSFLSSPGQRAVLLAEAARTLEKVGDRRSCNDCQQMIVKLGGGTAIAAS
Summary of the method: (§1)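 Extracted peptides in 3% acetonitrile/0.1% formic acid ran on a 50 cm C18 column into an Orbitrap Fusion, with MaxQuant identification and spectral counting.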

[2] = target: T2, NCAPG2 (human, UniProt Q86XI2 1-1143, limits assumed); test: IP/MS, LZTR1 R810W-FLAG, U87
T2 sequence (looked up): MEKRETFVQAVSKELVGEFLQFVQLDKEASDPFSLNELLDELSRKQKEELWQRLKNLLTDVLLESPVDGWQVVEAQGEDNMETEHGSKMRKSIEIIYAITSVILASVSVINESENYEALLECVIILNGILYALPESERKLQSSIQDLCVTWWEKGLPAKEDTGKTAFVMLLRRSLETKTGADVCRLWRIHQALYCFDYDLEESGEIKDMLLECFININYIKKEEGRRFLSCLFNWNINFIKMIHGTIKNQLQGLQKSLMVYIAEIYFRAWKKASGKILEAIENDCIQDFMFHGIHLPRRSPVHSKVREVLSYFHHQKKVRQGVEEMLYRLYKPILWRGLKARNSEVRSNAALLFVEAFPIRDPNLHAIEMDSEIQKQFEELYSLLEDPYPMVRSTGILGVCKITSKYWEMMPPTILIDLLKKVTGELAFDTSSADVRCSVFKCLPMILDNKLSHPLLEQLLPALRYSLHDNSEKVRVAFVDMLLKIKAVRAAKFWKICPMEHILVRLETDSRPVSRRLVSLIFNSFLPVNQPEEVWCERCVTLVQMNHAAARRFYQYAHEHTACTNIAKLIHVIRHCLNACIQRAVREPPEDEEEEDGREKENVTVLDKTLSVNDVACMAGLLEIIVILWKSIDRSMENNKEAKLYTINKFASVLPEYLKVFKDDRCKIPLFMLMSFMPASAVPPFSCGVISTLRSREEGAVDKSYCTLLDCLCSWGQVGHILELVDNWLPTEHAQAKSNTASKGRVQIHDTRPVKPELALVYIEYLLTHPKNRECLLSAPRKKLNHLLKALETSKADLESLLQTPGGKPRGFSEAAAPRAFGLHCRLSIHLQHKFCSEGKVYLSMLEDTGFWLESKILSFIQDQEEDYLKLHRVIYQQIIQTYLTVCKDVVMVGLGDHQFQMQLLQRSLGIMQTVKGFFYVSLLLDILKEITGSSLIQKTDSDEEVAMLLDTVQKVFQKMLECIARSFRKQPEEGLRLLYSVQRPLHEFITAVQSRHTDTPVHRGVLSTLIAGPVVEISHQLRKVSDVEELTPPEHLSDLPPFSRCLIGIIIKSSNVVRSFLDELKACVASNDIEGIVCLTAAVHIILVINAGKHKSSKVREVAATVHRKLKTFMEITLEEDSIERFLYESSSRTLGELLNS
Summary of the method: as §1

B1: LZTR1 R810W-FLAG (other, human, UniProt Q8N653 1-840, looked up)
chain: MAGPGSTGGQIGAAALAGGARSKVAPSVDFDHSCSDSVEYLTLNFGPFETVHRWRRLPPCDEFVGARRSKHTVVAYKDAIYVFGGDNGKTMLNDLLRFDVKDCSWCRAFTTGTPPAPRYHHSAVVYGSSMFVFGGYTGDIYSNSNLKNKNDLFEYKFATGQWTEWKIEGRLPVARSAHGATVYSDKLWIFAGYDGNARLNDMWTIGLQDRELTCWEEVAQSGEIPPSCCNFPVAVCRDKMFVFSGQSGAKITNNLFQFEFKDKTWTRIPTEHLLRGSPPPPQRRYGHTMVAFDRHLYVFGGAADNTLPNELHCYDVDFQTWEVVQPSSDSEVGGAEVPERACASEEVPTLTYEERVGFKKSRDVFGLDFGTTSAKQPTQPASELPSGRLFHAAAVISDAMYIFGGTVDNNIRSGEMYRFQFSCYPKCTLHEDYGRLWESRQFCDVEFVLGEKEECVQGHVAIVTARSRWLRRKITQARERLAQKLEQEAAPVPREAPGVAAGGARPPLLHVAIREAEARPFEVLMQFLYTDKIKYPRKGHVEDVLLIMDVYKLALSFQLCRLEQLCRQYIEASVDLQNVLVVCESAARLQLSQLKEHCLNFVVKESHFNQVIMMKEFERLSSPLIVEIVRRKQQPPPRTPLDQPVDIGTSLIQDMKAYLEGAGAEFCDITLLLDGHPRPAHKAILAARSSYFEAMFRSFMPEDGQVNISIGEMVPSRQAFESMLRYIYYGEVNMPPEDSLYLFAAPYYYGFYNNRLQAYCKQNLEMNVTVQNVLQILEAADKTQALDMKRHCLHIIVHQFTKVSKLPTLWSLSQQLLLDIIDSLASHISDKQCAELGADI
notes: Stably expressed in U87 cells by lentivirus; also called LZTR1-FLAG-R810W; LZTR1 RW; not shown: FLAG tag
B1: binds [1]; binds [2].
